Assay results: patent US20040136982A1

Assays:
FLAG-sBST2-GST (human) [1] = target: FLAG-sBST2-GST (human) (UniProt Q10589); assay: ELISA, plate coated with FLAG-sBST2-GST, control IgG1 (κ)
FLAG-sBST2-GST (human) [2] = target: FLAG-sBST2-GST (human) (UniProt Q10589); assay: ELISA, plate coated with FLAG-sBST2-GST, control IgG4 (κ)

Chain of FLAG-sBST2-GST (human) (Q10589 other isoform, or with tags, fused parts or gaps): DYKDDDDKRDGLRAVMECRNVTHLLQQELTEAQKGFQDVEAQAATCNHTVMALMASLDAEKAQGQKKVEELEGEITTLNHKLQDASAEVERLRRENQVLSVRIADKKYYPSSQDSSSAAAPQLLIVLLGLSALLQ

With Control IgG1 (κ) (antibody) the A450 nm/A570 nm (FLAG-sBST2-GST (human) [1]) was 0.014 absorbance.
Control IgG4 (κ) (antibody) gave an A450 nm/A570 nm (FLAG-sBST2-GST (human) [2]) of 0.013 absorbance.
